Experimental data from IntAct's records for PubMed 24698088.

B1: Serine protease HTRA2, mitochondrial (Homo sapiens), O43464 (parent)
chain: MAAPRAGRGAGWSLRAWRALGGIRWGRRPRLTPDLRALLTSGTSDPRARVTYGTPSLWARLSVGVTEPRACLTSGTPGPRAQLTAVTPDTRTREASENSGTRSRAWLAVALGAGGAVLLLLWGGGRGPPAVLAAVPSPPPASPRSQYNFIADVVEKTAPAVVYIEILDRHPFLGREVPISNGSGFVVAADGLIVTNAHVVADRRRVRVRLLSGDTYEAVVTAVDPVADIATLRIQTKEPLPTLPLGRSADVRQGEFVVAMGSPFALQNTITSGIVSSAQRPARDLGLPQTNVEYIQTDAAIDFGNSGGPLVNLDGEVIGVNTMKVTAGISFAIPSDRLREFLHRGEKKNSSSGISGSQRRYIGVMMLTLSPSILAELQLREPSFPDVQHGVLIHKVILGSPAHRAGLRPGDVILAIGEQMVQNAEDVYEAVRTQSQLAVQIRRGRETLTLYVTPEVTE
partner: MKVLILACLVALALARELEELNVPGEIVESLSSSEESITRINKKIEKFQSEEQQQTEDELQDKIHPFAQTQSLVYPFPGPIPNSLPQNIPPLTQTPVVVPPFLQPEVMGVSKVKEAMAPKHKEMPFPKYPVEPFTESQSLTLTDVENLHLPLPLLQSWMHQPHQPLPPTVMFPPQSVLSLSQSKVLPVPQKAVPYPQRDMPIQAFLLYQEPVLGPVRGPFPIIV

Variants of: B1
Details: with casb_bovin CSN2, P02666
G363A was tested, and the “effect of a mutation on the interaction” value was “decreasing interaction”.
